Measurements reported in publication PMC11018817, “Reciprocal antagonism of PIN1-APC/C^CDH1 governs mitotic protein stability and cell cycle entry” (Nature Communications, 2024).
Square brackets hold non-standard residues; d marks the D form. Ends that are not written are not given here. Pro(13C,15N) = 13C, 15N isotope-labelled Pro; pS = N[C@@H](COP(=O)(O)O)C(=O)O

Target: T1, 13C, 15N-enriched PIN1 (NMR sample) (human, UniProt Q13526 1-163, 13C, 15N-enriched)
T1 construct: PIN1, human; resonances of both the WW and the PPIase domain were followed; also called 15N-labeled PIN1
Experiment: NMR titration; series of 2D HSQC spectra of 0.1 mM 13C, 15N-enriched PIN1 titrated with the CDH1 phosphopeptide; 25 °C, pH 6.6, 20 mM potassium phosphate, 100 mM NaSO4, 10% D2O; chemical shift perturbation
Details: both partners purified

T1 sequence (Q13526 whole entry, the tested form may be a part): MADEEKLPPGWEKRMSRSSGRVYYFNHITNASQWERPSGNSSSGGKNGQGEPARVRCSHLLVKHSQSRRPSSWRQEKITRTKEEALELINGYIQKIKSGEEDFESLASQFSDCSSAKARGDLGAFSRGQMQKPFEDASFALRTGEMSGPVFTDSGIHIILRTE

binding result: binds
B1: CDH1-pS163 peptide (peptide)
peptide: LR[pS][Pro(13C,15N)]RKPTRKISKIPFKVLDAPE
notes: CDH1 (FZR1), human, residues 161-183; also called CDH1 phosphopeptide; phosphorylated peptide; source: synthetic peptide, bought: Pepmic
